According to the RNAGym collection of RNA variant scans (doi:10.1073/pnas.2313332121):
Variants at the floor of the assay were thinned out.

B1: TPR 5TU (parent)
chain: GGAUCUUCUCGAUCUAACAAAAAAGACAAAUCUGCCACAAAGCUUGAGAGCAUCUUCGGAUGCAGAGGCGGCAGCCUUCGGUGGCGCGAUAGCGCCAACGUUCUCAACUAUGACACGCAAAACGCGUGCUCCGUUGAAUGGAGUUUAUCAUG

Variants of: B1
Assay: polymerase ribozyme fitness, log enrichment relative to wild type (log ratio); higher = more active; in vitro selection for triplet polymerase activity
How it was run: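 Each subunit of a heterodimeric triplet polymerase ribozyme was mutagenized into a library by PCR, transcribed, and subjected to one round of in vitro selection, run in triplicate. Libraries were annealed with a biotinylated primer, the partner subunit and triplets, incubated frozen at −7 °C, and extended constructs were gel-excised, captured on streptavidin beads and recovered by RT-PCR. Input and output libraries were sequenced on Illumina, keeping genotypes with ≥10 input reads and ≥1 read per output. Fitness is log base 2 of genotype enrichment divided by wild-type enrichment, from inverse-variance-weighted replicate averages.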

Row | Variant | polymerase ribozyme fitness (log ratio)
1 | C32A G58C A64U C85G | ≤ -4.2
2 | U31A U55A G83A G117A | -0.253
3 | C32A G50A A137G | ≤ -4.2
4 | U31G U45A A49C G84A A113G A142C | ≤ -4.2
5 | U31C C36A C96U A150G | ≤ -4.2
6 | U31C C99G C103U | -0.958
7 | U31G U56G C93G C96G G133C | ≤ -4.2
8 | U31G C99U C116U A137G | -1.84
9 | U31C U53G G67C C76G G83A | -3.62
10 | U31C C35G C36U C51G G92C U109A U151A | ≤ -4.2
11 | U31C G83C G140C | -4.18
12 | U31C A41U A115G U144G | -1.6
13 | U31G U148C | -2.37
14 | U31C G42A U44G A60G A66G U82A C85A G128A | ≤ -4.2
15 | C32A A41C A66C C95U C99G G117U A150C | ≤ -4.2
16 | U31C G46C G92A | -3.48
17 | U31C A52C C57U G59C C99U U145G | -3.63
18 | U31G G59U C69A U134G G136U | -3.84
19 | U31G G65U | ≤ -4.2
20 | U31G G65A | -1.83
21 | C32A G88C G141C | ≤ -4.2
22 | U31C A39C C57A C76G C95G C131U U144G | ≤ -4.2
23 | U31C U53G | -0.735
24 | C32A C51A C54A G92A A97U U146C | ≤ -4.2

Row | Variant | polymerase ribozyme fitness (log ratio)
25 | U31A U44A G68A G81A U104G C125A | ≤ -4.2
26 | C32A U45A A60G C75U G81A U90G C116A | ≤ -4.2
27 | U31G C57G G58A A106G U111G G143U U144A | ≤ -4.2
28 | C32A U53G C85U C96G G136C | ≤ -4.2
29 | U31G C125U U130A | ≤ -4.2
30 | U31C C57G C87U U102A G136A | -0.199
31 | U31C C69U G86U C96U A142G | -2.99
32 | U31G G42U G58U G59A G86U U104G C131G G136C | ≤ -4.2
33 | C32A C87A C93U | ≤ -4.2
34 | U31G G58A C85A C114G A115U | -4.05
35 | U31G A60G G152U | -3.16
36 | U31A U55A A147G | -0.55
37 | C32A U61A C63G A66U U77G | ≤ -4.2
38 | U31A G94A | -0.349
39 | U31C G58A G94U G143U | -2.9
40 | U31G C54U U101C | -0.138
41 | U31C C85U | 0.604
42 | U31C C54U G71U C96U | -3.79
43 | U31C C54A C93G | ≤ -4.2
44 | U31G C87U U127A | -3.89
45 | U31C U56A G58C A98U C149U | 0.414
46 | U31G A52U A60G A98G | -4
47 | U31G C123G A142G | -1.12
48 | U31C G50A C96G | -0.777

Row | Variant | polymerase ribozyme fitness (log ratio)
49 | U31C G86C C93U A98U | -1.96
50 | C32A C85U A142U | ≤ -4.2
51 | C32A C87U | -3.44
52 | U31G G42C G50C C57A C79G G80C G136C | ≤ -4.2
53 | U31C G86U C96U | -0.694
54 | C32A C69G A98U | -1.51
55 | U31A U53A C95U A119G | -0.866
56 | U31C U101C G124A | 1.05
57 | C32A G74C G81C G94A A121U | -4.03
58 | U31C C95G | -0.224
59 | U31C C69U G86U C96U | -3.55
60 | U31A U55G C93G A110C A115U C123G | ≤ -4.2
61 | C32A C85U | -4.06
62 | U31G G50A C87A U135A | ≤ -4.2
63 | U31G C123U | 0.732
64 | U31G C95G C105G | ≤ -4.2
65 | U31G C35A G42A | ≤ -4.2
66 | C32A G84A | -3.57
67 | U31G C32U C75G A98G A121C G133A | ≤ -4.2
68 | U31G C93G G133U U134C | ≤ -4.2
69 | C32A A47U C87U | ≤ -4.2
70 | U31A U90G | ≤ -4.2
71 | C32A C38A U56A C69U C93A A122C G126U | ≤ -4.2
72 | U31G G83U G126C | -0.857

Row | Variant | polymerase ribozyme fitness (log ratio)
73 | U31C C87A | -4.2
74 | U31G C116G U144C | -4.03
75 | U31A U53A G68U C95A C149G | ≤ -4.2
76 | U31A U45A C76U C85U C93U G136U A150C | ≤ -4.2
77 | U31G G62C G88C A119G | ≤ -4.2
78 | U31G U53A C95U U135G | -3.6
79 | U31C A121C U134A | -1.76
80 | U31C C76U C93G U102C U145G | ≤ -4.2
81 | U31C U102A | 0.128
82 | U31G C54A C95A A142U | -3.34
83 | C32A A37U U56A G74A C76G G86A A115G G124A U151G | ≤ -4.2
84 | U31A U44A A52C G71U G83C G86A A97C U104A | ≤ -4.2
85 | C32A U55A C76U A89G G92U A119G | ≤ -4.2
86 | U31G A41C C75U C85G G88C A137U | ≤ -4.2
87 | U31C U55A U101C | 0.401
88 | U31G U33A C75G A91G G140A G152A | -3.96
89 | U31A U53A | -0.327
90 | C32A U44A A60C C79G G92U | ≤ -4.2
91 | U31C A37C A106U A107C | ≤ -4.2
92 | C32G A37C C85G | ≤ -4.2
93 | U31C A60U A110G C118G U144C | -3.59
94 | U31G C95A C123G | 0.831
95 | C32G A37G G83U C87G A89G G133C | ≤ -4.2
96 | U31C A60C C95A C99G A122G | -3.66

Row | Variant | polymerase ribozyme fitness (log ratio)
97 | U31G A89C C95G C99A | ≤ -4.2
98 | U31G G50A | -1.51
99 | U31A U135G G143C | -3.93
100 | U31G A40G G83C A142G | ≤ -4.2
101 | U31G G58C G140C | -4
102 | U31G C95A | 0.165
103 | U31G C95U | 0.463
104 | U31C A60C G92A C99A | ≤ -4.2
105 | U31C A47G A49U G94A A119G G136C | -4.04
106 | U31G A40C G42A G50A C54U C72U G94U | ≤ -4.2
107 | U31C A41G U53A U55A | -0.0378
108 | C32G A37G C95U | -3.7
109 | C32A A39U G58A C72U G80U G83A | ≤ -4.2
110 | U31G A37C G126U | -2.65
111 | C32A C35U C69A C75U A150G | ≤ -4.2
112 | U31G U55A A142U | -1.54
113 | U31C U44A C54A C76G C95G C105G A107G | -4.01
114 | U31A U144A | 0.137
115 | C32A | -2.96
116 | C32G | -3.19
117 | C32A A41C G94U C103A C118U | ≤ -4.2
118 | U31C U33C G50U C76U G83C | ≤ -4.2
119 | C32A U61G U82A G92U C99G | ≤ -4.2
120 | C32A G50U U55A C85A | ≤ -4.2

Row | Variant | polymerase ribozyme fitness (log ratio)
121 | U31G C35U A60U A115G | -3.22
122 | U31G A37U A49C C93A A106G G117C U145C U148A | ≤ -4.2
123 | U31A U56A G86A A97C C105A U145C | ≤ -4.2
124 | U31G U56A G136A A147C | -0.143
125 | U31C C79G U139C U144G | ≤ -4.2
126 | C32A A49U G68U C79G C85U U127G | ≤ -4.2
127 | U31C C35U G68C G92U U104A A115U A119C G143A | ≤ -4.2
128 | U31C C96G A137U | ≤ -4.2
129 | C32A U82C | ≤ -4.2
130 | U31A U45A A47C C93U C99G U135A | ≤ -4.2
131 | U31C A40C G94A | 1.25
132 | U31G A40G U61A C87U G112U G141C | ≤ -4.2
133 | U31C A39C C54U A73G U90G G124A | ≤ -4.2
134 | U31G A37U A41C C75U C76G C96U C105U G117U G133U U134C | ≤ -4.2
135 | U31C C63G G83A C96U | 1.61
136 | U31C C43A A66C C79U C85A A120C G140U | ≤ -4.2
137 | C32A A41C C51U G58A C69U C93U C108U | ≤ -4.2
138 | U31A U56A U127C | -1.37
139 | U31G G59A G92U | -0.919
140 | U31G U53G G70U A89U C93U C114A C123G U135C G152U | ≤ -4.2
141 | C32G A37G C38U U56A A119C | ≤ -4.2
142 | C32A U33G A66G G83A U102G C118G G124C G141C G143U | ≤ -4.2
143 | U31C U55A G136U A150G | -1.81
144 | C32A C75G G92A A150U | ≤ -4.2

Row | Variant | polymerase ribozyme fitness (log ratio)
145 | C32A G83A G88C C116G G140C | -4.04
146 | U31C G84A | 0.831
147 | C32A A40C G84A | ≤ -4.2
148 | C32A U45G G46A C99G C103G U127C U148G | ≤ -4.2
149 | U31A U55A A97U U145G | -0.219
150 | U31G A122U A142C | -1.56
151 | U31G U53A A89C C93G G100A A137C A147U G152C | ≤ -4.2
152 | U31G U56A G80C C87G C99G | ≤ -4.2
153 | U31A U45A U55G C85U C95G A120G A142U | -4.06
154 | C32A C96U | -4.11
155 | C32A A39U C79A C85A C129G | ≤ -4.2
156 | U31A U53G G84U C96G | ≤ -4.2
157 | C32A A91U C99U A120C | ≤ -4.2
158 | C32A C38U G128C U135A | ≤ -4.2
159 | C32A G84U A97G C131U U139C | ≤ -4.2
160 | U31C A47U G88A C108A | ≤ -4.2
161 | U31C C38G A47G C51A U56A G83C U146C U148C | ≤ -4.2
162 | U31C G34U A52U U56A A60G G84A G92A C95G C105A A110C G133C U148A | ≤ -4.2
163 | C32G A37C G140C | ≤ -4.2
164 | C32A C35U C57G G62A U90C C103G C116U C149U | ≤ -4.2
165 | U31G U145A | 0.652
166 | C32A A89C C95A | ≤ -4.2
167 | U31G C57U G83C C87A | ≤ -4.2
